Assay results: patent US20250361311A1 (published 2025)

T1: human scTL1A (human, UniProt O95150 72-251, biotinylated (captured with the Biotin CAPture kit); site not stated)
T1 chain: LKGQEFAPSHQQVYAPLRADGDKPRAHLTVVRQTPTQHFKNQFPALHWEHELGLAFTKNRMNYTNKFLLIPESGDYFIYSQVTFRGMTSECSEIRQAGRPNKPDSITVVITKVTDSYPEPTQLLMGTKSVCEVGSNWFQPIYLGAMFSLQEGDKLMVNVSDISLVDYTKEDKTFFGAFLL

T2: recombinant TL1A (UniProt O95150 72-251)
T2 chain: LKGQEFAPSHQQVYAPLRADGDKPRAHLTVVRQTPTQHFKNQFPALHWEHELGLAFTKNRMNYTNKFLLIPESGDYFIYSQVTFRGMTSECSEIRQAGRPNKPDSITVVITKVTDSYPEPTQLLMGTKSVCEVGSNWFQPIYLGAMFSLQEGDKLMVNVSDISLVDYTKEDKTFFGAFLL


Assays:
70416_073[TL1A]H1L1 = assay: SPR; monovalent Fab
70416_092[TL1A]H1L1 = assay: SPR; monovalent Fab
70417_111[TL1A]H1L1 = assay: SPR; monovalent Fab
70392_074[TL1A]H1L1 = assay: SPR; monovalent Fab
70392_201[TL1A]H1L1 = assay: SPR; monovalent Fab
70392_189[TL1A]H1L1 = assay: SPR; monovalent Fab
Comparator 2 = assay: SPR; monovalent Fab
70392_069[TL1A]H1L1 = assay: SPR; monovalent Fab
human scTL1A = target: T1, human scTL1A; assay: SPR; monovalent Fab
recombinant TL1A = target: T2, recombinant TL1A; assay: SPR; run in different experiment under similar conditions

| Kd (70416_073[TL1A]H1L1) | Kd (70416_092[TL1A]H1L1) | Kd (70417_111[TL1A]H1L1) | Kd (70392_074[TL1A]H1L1) | Kd (70392_201[TL1A]H1L1) | Kd (70392_189[TL1A]H1L1) | Kd (Comparator 2) | Kd (70392_069[TL1A]H1L1) | Kd (human scTL1A) | Kd (recombinant TL1A) | Binder |
| --- | --- | --- | --- | --- | --- | --- | --- | --- | --- | --- |
| 6.61 nM | 3.12 nM | 6.84 nM | 6.11 nM | 0.128 nM | 0.895 nM | 0.0708 nM | 1.69 nM | – | – | scTL1A (ligand, biotinylated (captured with the Biotin CAPture kit); site not stated) LKGQEFAPSHQQVYAPLRADGDKPRAHLTVVRQTPTQHFKNQFPALHWEHELGLAFTKNRMNYTNKFLLIPESGDYFIYSQVTFRGMTSECSEIRQAGRPNKPDSITVVITKVTDSYPEPTQLLMGTKSVCEVGSNWFQPIYLGAMFSLQEGDKLMVNVSDISLVDYTKEDKTFFGAFLL |
| – | – | – | – | – | – | – | – | 0.104 nM | 0.104 nM | 70416_041[TL1A]H1L1 Fab (Fab, V domains shown) VH: QVQLVQSGAEVKKPGASVKVSCKVSGFSVTSYNVHWVRQAPGQGLEWMGVMWSGGNTDYNSKFQGRVTMTRDTSTNTVYMELSSLRSEDTAVYYCARAGRYYHDSNYYWDFPYWGQGTLVTVSS VL: DIQMTQSPSSVSASVGDRVTITCRASEDIYSGLAWYQQKPGKSPKLLIYGASSLQDGVPSRFSGSGSGTDYTLTISSLQPEDFATYFCQEGLKSPYTFGAGTKLEIK |
